Experimental findings from the supplement of paper PMC12764529 are described below.

± gives the half width of the 95% confidence interval.

Data set [1] in a line: folding stability dG unfold from trypsin proteolysis; higher = more stable. The protocol:
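Folding stability of de novo designed mini-proteins (<80 aa, no Cys; designed by TrROS, TrMRF, ProteinMPNN and the joint model) was measured by cDNA display proteolysis with trypsin and chymotrypsin. Each protease was used at 11 concentrations in a threefold dilution series plus a no-protease condition. K50 was inferred by Bayesian fitting of sequencing counts, and dG unfold was derived against a sequence-predicted unfolded-state K50 (Tsuboyama et al. method). Sequences shown include variable-length N-terminal GS-type padding (SAGGSAGG...) inside a display construct carrying a PA tag. Rows were kept only if the AF2 dimer inter-PAE was >15, to exclude likely homo-oligomers.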

Data set [2] is described as follows: folding stability dG unfold (combined trypsin and chymotrypsin); higher = more stable. The gist of the method:
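Unfolding free energy was derived, per protease or combined, by relating Bayesian-fitted K50 values from sequencing counts to a sequence-predicted unfolded-state K50 and a shared folded-state K50. The underlying digests exposed cysteine-free mini-proteins under 80 residues, in a PA-tagged cDNA display construct, to trypsin and chymotrypsin at 11 threefold-diluted concentrations and to a no-protease condition. A filter kept only designs with AlphaFold2 dimer inter-PAE above 15.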

With “SAGGSAGGMSISTEQEGGKITVTDSSPGTPIAELPPDVEKEVETPVIPPPPPLYRLFLPGTVLVSAGGSAGG [r6_40_JUSTAS]”, the results for the “folding stability dG unfold” value in data set [1] and in data set [2] were -0.94 ± 0.48 kcal/mol and less than -1 kcal/mol, respectively.
The matching figures for “SAGGSAGGMTAEEVAEWIADEFMENHPNIEIKPVATEDGEVKIDIRHPNSGMTHTFKIPPGQPLSAGGSAGG [r6_446_TrROS]”: -0.796 ± 0.19 kcal/mol and less than -1 kcal/mol.
For “SAGGSAGGMVEHVVTVPPSQVEEVIEEAKPKPVVEVKVEKVPGRDEVVVTMKYEIPEEELLKKLSAGGSAGG [r6_273_JUSTAS]” the same measures were -0.704 ± 0.084 kcal/mol and less than -1 kcal/mol.
For “SAGGSAGGMVPITDLTVDSEEFVLPTGGVATRETITRPATGLVYEKVVFTPKPGVVEQREVALLSAGGSAGG [r6_895_JUSTAS]” the same measures were -0.471 ± 0.12 kcal/mol and less than -1 kcal/mol.
As for “SAGGSAGGNPEDKERRYVRMPIKVTVPNPNGKKIKIPIYMPVGDPERMMPRAIKFARELAKKGLSAGGSAGG [r6_903_TrROS]”, the “folding stability dG unfold” value in data set [1] is -0.301 ± 0.7 kcal/mol; in data set [2] it was less than -1 kcal/mol.
Regarding “SAGGSAGGPPDDVEPEEFTFRFGDKPIKVEILRVNPDNNNIMIKHESNGKPKTMMFPPEDLEKLSAGGSAGG [r6_421_TrROS]”, the entries for the “folding stability dG unfold” value in data set [1] and in data set [2] were -0.129 ± 0.29 kcal/mol and -0.0461 ± 0.25 kcal/mol, respectively.
On to “SAGGSAGGPVTVVPVVTPADVPVLTTPGGAPARPASRPDLVRPVASTVTVTITPAPAAPTVTVLSAGGSAGG [r6_537_JUSTAS]”, for which the “folding stability dG unfold” value in data set [1] is 0.857 ± 0.038 kcal/mol; in data set [2] it was 0.135 ± 0.12 kcal/mol.
Regarding “SAGGSAGGPYMVMIRMPNNPQPIWFPPDEVKEALKEGDEKRIKFPGGGMEMTIRNVDDIEIMPPSAGGSAGG [r6_509_TrROS]”, the “folding stability dG unfold” value in data set [1] is -0.793 ± 0.58 kcal/mol; in data set [2] it was less than -1 kcal/mol.
The matching figures for “SAGGSAGGSAALGDESLHRPVPVVSTSPVTTTTTLTLTPPNGVTVTESVTTTTTVYGSGAASAGGSAGGSAG [r3_380_JUSTAS]”: 0.553 ± 0.025 kcal/mol and 0.172 ± 0.13 kcal/mol.
For the sequence “SAGGSAGGSADIELLGESVDPATGRSSKTFQAPGKIIVETTAPDGTKTTSVVDPNSNVTIPLSAGGSAGGSA [r18_230_JUSTAS]”, the “folding stability dG unfold” value in data set [1] is -0.522 ± 0.11 kcal/mol; in data set [2] it was less than -1 kcal/mol.
For “SAGGSAGGSAESIDAKVTPVALPSGPRYLIEVNNPAAPEIPKSVVEEELAKKYPKERVELLSAGGSAGGSAG [r3_226_JUSTAS]”, the “folding stability dG unfold” value is -0.516 ± 0.1 kcal/mol in data set [1] and less than -1 kcal/mol in data set [2].
For “SAGGSAGGSAGEPIRVRIENPPGGQRKITIPTDDLQEKGITPKDIAKKLAREFGWPIEVWSAGGSAGGSAGG [r11_829_TrROS]” the same measures were 0.257 ± 0.3 kcal/mol and less than -1 kcal/mol.
The matching figures for “SAGGSAGGSAGGDAILIEVESPEDAVEAARELAEKEFGIDPENFPINVVVDEPDGKALIASAGGSAGGSAGG [r7_387_TrMRF]”: 0.743 ± 0.019 kcal/mol and -0.404 ± 0.25 kcal/mol.
Consider “SAGGSAGGSAGGDPVTVLSIKPEPGKLTVTTNTRADGSTTTTTVSPENPPNIKPGEPLSSAGGSAGGSAGGS [r10_834_JUSTAS]”, for which the “folding stability dG unfold” value came out at 0.552 ± 0.04 kcal/mol in data set [1] and 0.109 ± 0.18 kcal/mol in data set [2].
The matching figures for “SAGGSAGGSAGGEVEVPKDASLVVTYPNGERKEVPVEDKVPVKGLPVYLLGPDGTLREIDSAGGSAGGSAGG [r7_54_TrMRF]”: 0.294 ± 0.18 kcal/mol and less than -1 kcal/mol.
The matching figures for “SAGGSAGGSAGGFVEKYPDGVIVEKDPNNDSGTVKKVTTTKDPNTNKPTSKVTVTPISKLSAGGSAGGSAGG [r7_181_JUSTAS]”: -0.844 ± 0.2 kcal/mol and less than -1 kcal/mol.
The matching figures for “SAGGSAGGSAGGGESAAPVVATTVSEEVFEEPGGTVIRRYTVTTPAATTTLSTEVLPPLLSAGGSAGGSAGG [r7_43_JUSTAS]”: -0.25 ± 0.17 kcal/mol and less than -1 kcal/mol.
In the case of “SAGGSAGGSAGGGMTTVTIEVPPELSEEEVRRAAAELVAAGRPVPVTVERLPEDRVVVVTSAGGSAGGSAGG [r7_283_JUSTAS]”, the figures for the “folding stability dG unfold” value in data set [1] and in data set [2] were 0.68 ± 0.021 kcal/mol and -0.0348 ± 0.082 kcal/mol, respectively.
Take “SAGGSAGGSAGGGPSVAPFEVTELLSVSYVPGPRRFVAVVRLPDPERLVVVPVEDLPPGQSAGGSAGGSAGG [r7_304_TrMRF]”: the “folding stability dG unfold” value in data set [1] is -0.941 ± 0.41 kcal/mol; in data set [2], less than -1 kcal/mol.
The matching figures for “SAGGSAGGSAGGHIVIPNKRWYIQFPNGKPIGEHRFDTAEDIAKELPPNMRIVPPGDPISAGGSAGGSAGGS [r10_310_TrROS]”: 0.281 ± 0.32 kcal/mol and less than -1 kcal/mol.
Regarding “SAGGSAGGSAGGHPVRVRITWPDGQQRTIPIPVDPENGQVTLEEIAKTISPEHGWKIEVFSAGGSAGGSAGG [r7_492_TrROS]”, the “folding stability dG unfold” value is -0.107 ± 0.2 kcal/mol in data set [1] and -0.638 ± 0.51 kcal/mol in data set [2].
The matching figures for “SAGGSAGGSAGGITPEEIEKIREAPLPNGAPIKDVFVEGDYAVVLFETEPDLYLIVIPNKSAGGSAGGSAGG [r7_995_TrMRF]”: -0.121 ± 0.12 kcal/mol and -0.907 ± 0.57 kcal/mol.
“SAGGSAGGSAGGKITIVVSASSPEEAKRFVGELKALGPADIKVIVVPAPKPLPADDPRAKSAGGSAGGSAGG [r7_261_TrMRF]”: the “folding stability dG unfold” value in data set [1] was -0.177 ± 0.21 kcal/mol; in data set [2] it was less than -1 kcal/mol.
For “SAGGSAGGSAGGKKKVKVGNKEVEIVKEEEKEGKLIIKDKKTGKKIEISKEDLKKKKIKLSAGGSAGGSAGG [r7_391_TrROS_Hall]” the same measures were -0.42 ± 0.52 kcal/mol and less than -1 kcal/mol.
For “SAGGSAGGSAGGKKVKIKIEIPGMSKEEIEKLAKELEKKGIKVEKIEVKPLPKVEVFEKKSAGGSAGGSAGG [r7_906_TrROS_Hall]” the same measures were -0.602 ± 0.27 kcal/mol and less than -1 kcal/mol.
For “SAGGSAGGSAGGKRITIMFNTPEQIEELAENLGFDDIEVEPFPNEDGRPYVQVTIRLPPSAGGSAGGSAGGS [r10_494_TrROS]”, the “folding stability dG unfold” value in data set [1] is -0.703 ± 0.15 kcal/mol; in data set [2], less than -1 kcal/mol.
As for “SAGGSAGGSAGGKVRVETDPERGYYKVKIRNPNNGRKIKVPVPMDDPKKAKKQAKELAKSAGGSAGGSAGGS [r10_1117_TrROS]”, the entries for the “folding stability dG unfold” value in data set [1] and in data set [2] were -0.863 ± 0.5 kcal/mol and less than -1 kcal/mol, respectively.
For “SAGGSAGGSAGGLEVSIPGWTVTKTEPLPDDSVLSTATKKNGPKFLISISPDEVTISPESAGGSAGGSAGGS [r10_312_JUSTAS]” the same measures were -0.394 ± 0.16 kcal/mol and less than -1 kcal/mol.
As to “SAGGSAGGSAGGLSPESFYTVEVYNKDGTKLGPAQVVSTGTGKVVIPIEPDVEIILNPSSAGGSAGGSAGGS [r10_1257_JUSTAS]”, the “folding stability dG unfold” value in data set [1] is 0.346 ± 0.17 kcal/mol; in data set [2], -0.136 ± 0.21 kcal/mol.
“SAGGSAGGSAGGMKTYSVEELRARLEEEGKEPTLEELASLPGAKVELNKETKEATIVLKPSAGGSAGGSAGG [r7_180_TrROS_Hall]”: the “folding stability dG unfold” value is 0.044 ± 0.16 kcal/mol in data set [1] and less than -1 kcal/mol in data set [2].
The matching figures for “SAGGSAGGSAGGMPIRVYRDPSNPDVVYVETPESTRDVSLEEVERLPVDEIRSAAEVAAESAGGSAGGSAGG [r17_88_JUSTAS]”: 0.335 ± 0.021 kcal/mol and -0.206 ± 0.16 kcal/mol.
For “SAGGSAGGSAGGMTKISVNIVIYDPKNNTTKIIPITMSESEIKKVKEELVPKNMSAKILSAGGSAGGSAGGS [r10_397_JUSTAS]”, the entries for the “folding stability dG unfold” value in data set [1] and in data set [2] were 0.847 ± 0.12 kcal/mol and 0.191 ± 0.24 kcal/mol, respectively.
For “SAGGSAGGSAGGMVIEIDVPPSVPASEVKEKVKAELLKKGVPKDTEIKVIVKPKNPELLSAGGSAGGSAGGS [r10_746_JUSTAS]” the same measures were -0.656 ± 0.2 kcal/mol and less than -1 kcal/mol.
For “SAGGSAGGSAGGMYIATFKPPDGSEITVKLNPGEKVTIKLKDGTPAGVVSKKAVSPELLSAGGSAGGSAGGS [r10_422_JUSTAS]” the same measures were -0.245 ± 0.17 kcal/mol and -0.361 ± 0.68 kcal/mol.
For “SAGGSAGGSAGGPKFKFEDVMVQRNPEPERAYVPITYEDPGKERPIMIPIPPNQTLDEISAGGSAGGSAGGS [r10_304_TrROS]” the same measures were 0.0428 ± 0.068 kcal/mol and less than -1 kcal/mol.
For the sequence “SAGGSAGGSAGGPVVNILVKHPNGKKETISVDVKEENIGEVATDILPKGYEVLEPSVFPGSAGGSAGGSAGG [r7_159_TrMRF]”, the “folding stability dG unfold” value in data set [1] was -0.258 ± 0.1 kcal/mol; in data set [2] it was less than -1 kcal/mol.
Regarding “SAGGSAGGSAGGSGGSMEVSISEAPPEYLVVTVYDPATGKTTVRKVSPSEVKSLKYEGGSAGGSAGGSAGGS [r4_494_JUSTAS]”, the results for the “folding stability dG unfold” value in data set [1] and in data set [2] were 0.274 ± 0.053 kcal/mol and less than -1 kcal/mol, respectively.
As for “SAGGSAGGSAGGSKKIIIPVGNKPIEITLHPDEIPEIHPETNYISIYLPKTNDVLILPVGSAGGSAGGSAGG [r7_7_TrMRF]”, the “folding stability dG unfold” value in data set [1] is -0.0749 ± 0.051 kcal/mol; in data set [2], less than -1 kcal/mol.
The matching figures for “SAGGSAGGSAGGSMGPVPVWITIKIPDKNGKPKRKIEIPMEGPNMTPSEIRKQAKPFIKSAGGSAGGSAGGS [r4_375_TrROS]”: -0.281 ± 0.49 kcal/mol and less than -1 kcal/mol.
Turning to “SAGGSAGGSAGGSMKVEKFTEIITTPDGKPELIVEKEKTTTPNGGTKTTVTKIIPAKLLSAGGSAGGSAGGS [r4_117_JUSTAS]”, the “folding stability dG unfold” value in data set [1] is -0.306 ± 0.38 kcal/mol; in data set [2] it was less than -1 kcal/mol.
For the sequence “SAGGSAGGSAGGSMRYDIVEDPETGTVTINRYVVYPPGIEKKTEGEIVPASTVPPGDLLGSAGGSAGGSAGG [r7_455_JUSTAS]”, the “folding stability dG unfold” value is -0.0505 ± 0.29 kcal/mol in data set [1] and less than -1 kcal/mol in data set [2].
Consider “SAGGSAGGSAGGSPPTAKELVKELREKFPPGYPITIKHPDKTIRIMMNPGPGKFQVEIYSAGGSAGGSAGGS [r4_150_TrROS]”, for which the “folding stability dG unfold” value in data set [1] is -0.236 ± 0.37 kcal/mol; in data set [2], less than -1 kcal/mol.
